Results on 5 sequences are retold here after the supplement of paper PMC5998384.

The test system of series [1] is HeLa Kyoto. Briefly: solubility in G1/S (NP-40 vs SDS abundance) (log2 ratio); higher = more soluble. The conditions noted are these: cell cycle stage: G1/S.
For series [2], the system named is HeLa Kyoto. Nature of the series: melting temperature (median over replicates), in situ; higher = more thermally stable.
The subject of series [3] is HeLa Kyoto. Briefly: solubility change mitosis vs G1/S (difference of NP-40 vs SDS log2 ratios) (log2 ratio difference); higher = more soluble in mitosis.
For series [4], the system named is HeLa Kyoto. Nature of the series: thermal stability score vs G1/S (z-score of summed log2 fold changes over temperatures); higher = more thermally stable than in G1/S.
The mark [5] stands for this setting: cell cycle stage: early G1 (4.5 h after nocodazole release).
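Throughout, for melting temperature (median over replicates), in situ: HeLa Kyoto cells synchronized by double thymidine or nocodazole block, proteins quantified by TMT10plex mass spectrometry, three independent biological replicates.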
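Throughout, for solubility change mitosis vs G1/S (difference of NP-40 vs SDS log2 ratios): synchronized HeLa Kyoto cells (double thymidine block for G1/S, nocodazole release for mitosis), protein amounts in NP-40 versus SDS lysates quantified by mass spectrometry, three biological replicates.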
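Throughout, for solubility in G1/S (NP-40 vs SDS abundance): HeLa Kyoto cells arrested at G1/S by double thymidine block, proteins quantified by TMT10plex mass spectrometry in mild NP-40 versus SDS extracts, three biological replicates.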
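Throughout, for thermal stability score vs G1/S (z-score of summed log2 fold changes over temperatures): synchronized HeLa Kyoto cells, proteins quantified by TMT10plex mass spectrometry, three biological replicates, mitosis taken 0.5 h after nocodazole release, G1/S directly after double thymidine block.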

Turning to “MASKRALVILAKGAEEMETVIPVDVMRRAGIKVTVAGLAGKDPVQCSRDVVICPDASLEDAKKEGPYDVVVLPGGNLGAQNLSESAAVKEILKEQENRKGLIAAICAGPTALLAHEIGFGSKVTTHPLAKDKMMNGGHYTYSENRVEKDGLILTSRGPGTSFEFALAIVEALNGKEVAAQVKAPLVLKD [PARK7]”, the “solubility in G1/S (log2)” value in series [1] is 0.529. For the same sequence, the melting temperature stood at 56.8 °C in series [2] (cell cycle stage: G1/S) and 57.4 °C in series [2] (cell cycle stage: mitosis). Further, the “solubility change mitosis (log2)” value in series [3] was determined as 0.0696. Moreover, the thermal stability score in series [4] (setting [5]) is 1.01; in series [4] (cell cycle stage: mitosis) it was -0.859.

As for “MAAACRSVKGLVAVITGGASGLGLATAERLVGQGASAVLLDLPNSGGEAQAKKLGNNCVFAPADVTSEKDVQTALALAKGKFGRVDVAVNCAGIAVASKTYNLKKGQTHTLEDFQRVLDVNLMGTFNVIRLVAGEMGQNEPDQGGQRGVIINTASVAAFEGQVGQAAYSASKGGIVGMTLPIARDLAPIGIRVMTIAPGLFGTPLLTSLPEKVCNFLASQVPFPSRLGDPAEYAHLVQAIIENPFLNGEVIRLDGAIRMQP [HSD17B10]”, in series [1], the “solubility in G1/S (log2)” value was found to be 0.254. In addition, the melting temperature in series [2] (cell cycle stage: G1/S) is 54.5 °C; in series [2] (cell cycle stage: mitosis), 54.4 °C. Moreover, the “solubility change mitosis (log2)” value in series [3] was -0.041. In addition, the thermal stability score in series [4] (setting [5]) was 0.0147; in series [4] (cell cycle stage: mitosis), -4.18.

Take “MANLLKTVVTGCSCPLLSNLGSCKGLRVKKDFLRTFYTHQELWCKAPVKPGIPYKQLTVGVPKEIFQNEKRVALSPAGVQNLVKQGFNVVVESGAGEASKFSDDHYRVAGAQIQGAKEVLASDLVVKVRAPMVNPTLGVHEADLLKTSGTLISFIYPAQNPELLNKLSQRKTTVLAMDQVPRVTIAQGYDALSSMANIAGYKAVVLAANHFGRFFTGQITAAGKVPPAKILIVGGGVAGLASAGAAKSMGAIVRGFDTRAAALEQFKSLGAEPLEVDLKESGEGQGGYAKEMSKEFIEAEMKLFAQQCKEVDILISTALIPGKKAPVLFNKEMIESMKEGSVVVDLAAEAGGNFETTKPGELYIHKGITHIGYTDLPSRMATQASTLYSNNITKLLKAISPDKDNFYFDVKDDFDFGTMGHVIRGTVVMKDGKVIFPAPTPKNIPQGAPVKQKTVAELEAEKAATITPFRKTMSTASAYTAGLTGILGLGIAAPNLAFSQMVTTFGLAGIVGYHTVWGVTPALHSPLMSVTNAISGLTAVGGLALMGGHLYPSTTSQGLAALAAFISSVNIAGGFLVTQRMLDMFKRPTDPPEYNYLYLLPAGTFVGGYLAALYSGYNIEQIMYLGSGLCCVGALAGLSTQGTARLGNALGMIGVAGGLAATLGVLKPGPELLAQMSGAMALGGTIGLTIAKRIQISDLPQLVAAFHSLVGLAAVLTCIAEYIIEYPHFATDAAANLTKIVAYLGTYIGGVTFSGSLIAYGKLQGLLKSAPLLLPGRHLLNAGLLAASVGGIIPFMVDPSFTTGITCLGSVSALSAVMGVTLTAAIGGADMPVVITVLNSYSGWALCAEGFLLNNNLLTIVGALIGSSGAILSYIMCVAMNRSLANVILGGYGTTSTAGGKPMEISGTHTEINLDNAIDMIREANSIIITPGYGLCAAKAQYPIADLVKMLTEQGKKVRFGIHPVAGRMPGQLNVLLAEAGVPYDIVLEMDEINHDFPDTDLVLVIGANDTVNSAAQEDPNSIIAGMPVLEVWKSKQVIVMKRSLGVGYAAVDNPIFYKPNTAMLLGDAKKTCDALQAKVRESYQK [NNT]”: the “solubility in G1/S (log2)” value in series [1] came to 0.11. In addition, the melting temperature in series [2] (cell cycle stage: G1/S) and in series [2] (cell cycle stage: mitosis) was 53.4 °C in each case. Besides, the “solubility change mitosis (log2)” value in series [3] was -0.0884. The thermal stability score in series [4] (setting [5]) is -1.09; in series [4] (cell cycle stage: mitosis), -1.47.

“MVSWMICRLVVLVFGMLCPAYASYKAVKTKNIREYVRWMMYWIVFALFMAAEIVTDIFISWFPFYYEIKMAFVLWLLSPYTKGASLLYRKFVHPSLSRHEKEIDAYIVQAKERSYETVLSFGKRGLNIAASAAVQAATKSQGALAGRLRSFSMQDLRSISDAPAPAYHDPLYLEDQVSHRRPPIGYRAGGLQDSDTEDECWSDTEAVPRAPARPREKPLIRSQSLRVVKRKPPVREGTSRSLKVRTRKKTVPSDVDS [REEP4]”: the “solubility in G1/S (log2)” value in series [1] is 0.0372. Besides, the melting temperature in series [2] (cell cycle stage: G1/S) was determined as 53.4 °C; in series [2] (cell cycle stage: mitosis) it was 53.2 °C. Besides, the “solubility change mitosis (log2)” value in series [3] was -0.135. Besides, the results for the thermal stability score in series [4] (setting [5]) and in series [4] (cell cycle stage: mitosis) were -1.06 and -1.58, respectively.

Turning to “MSASVVSVISRFLEEYLSSTPQRLKLLDAYLLYILLTGALQFGYCLLVGTFPFNSFLSGFISCVGSFILAVCLRIQINPQNKADFQGISPERAFADFLFASTILHLVVMNFVG [DAD1]”, in series [1], the “solubility in G1/S (log2)” value was -0.0329. Moreover, the melting temperature came to 54.5 °C in series [2] (cell cycle stage: G1/S) and 54.2 °C in series [2] (cell cycle stage: mitosis). The “solubility change mitosis (log2)” value in series [3] is -0.257. Also, the results for the thermal stability score in series [4] (setting [5]) and in series [4] (cell cycle stage: mitosis) were 0.505 and -0.552, respectively.
